The target of test [1] is CD16A F158 (human) (UniProt P08637). Nature of the test: Table 3; relative to wild-type Fc; method not stated.
In test [2] the target is CD32B (FcγRII-B) (UniProt P31994). The description is as above.
Test [3] concerns the target CD16A V158 (human) (UniProt P08637). Described as above.
For test [4], the target named is HER-2 (UniProt P04626). Nature of the test: SPR (BIAcore 1000), HER-2 amine-coupled to chip, antibody injected at 6.25-200 nM. In general terms: Surface plasmon resonance follows binding to a sensor surface in real time, without labels.

This note sets out measurements from patent US20110097323A1.

CD16A F158 (human), sequence (P08637 17-208 limits assumed): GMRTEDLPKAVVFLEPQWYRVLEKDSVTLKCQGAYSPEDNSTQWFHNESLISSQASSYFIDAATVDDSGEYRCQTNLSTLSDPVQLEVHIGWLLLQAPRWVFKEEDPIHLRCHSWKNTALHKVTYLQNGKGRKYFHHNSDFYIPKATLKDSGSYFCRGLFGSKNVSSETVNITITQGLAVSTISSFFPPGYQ
CD32B (FcγRII-B), sequence (P31994 43-217 limits assumed): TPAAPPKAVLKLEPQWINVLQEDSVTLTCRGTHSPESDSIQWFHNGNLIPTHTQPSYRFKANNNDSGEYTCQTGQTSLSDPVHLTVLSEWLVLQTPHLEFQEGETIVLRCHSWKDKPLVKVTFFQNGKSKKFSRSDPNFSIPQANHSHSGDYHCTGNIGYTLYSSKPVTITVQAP
CD16A V158 (human), sequence (P08637 17-208 F176V limits assumed): as the sequence (P08637 17-208 limits assumed) above, with F160V counted along it

In the case of “Fc variant F243I R292P Y300L V305I P396L (from UniProt P01857 99-330)”, the binding relative to wild-type Fc (fold) stood at 3.12 in test [1] and 1.05 in test [2].

As for “Fc variant F243L R292P P300L (from UniProt P0DOX5 228-449)”, the binding relative to wild-type Fc (fold) in test [3] is 6.69; in test [1] it was 2.3; in test [2], 0.32.

As for “Fc variant V284M R292P K370N (from UniProt P01857 99-330)”, the binding relative to wild-type Fc (fold) in test [3] is 1.14; in test [1], 1.37; in test [2], 0.37.

One may read the koff as the rate constant with which the complex falls apart. Read a low koff as slow dissociation. Broadly, the kon is the rate constant with which the complex forms. In test [4], ch4D5 (antibody) yielded a koff of 6.3e-06 s⁻¹ and a kon of 110000 M⁻¹ s⁻¹.
